These results are taken from article PMC4615771.

Series [1] deals with T1, GPBP1 eAT-hook (eAT) (Homo sapiens, UniProt D4PHA4 38-80).
T1 chain: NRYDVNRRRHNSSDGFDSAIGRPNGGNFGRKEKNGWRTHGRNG
Kind of series: MST.

Series [2] concerns the target T1, GPBP1 eAT-hook (eAT). Description: MST competition.
The target of series [3] is T2, PTOV1 eATmut (Homo sapiens, UniProt Q86YD1 1-43, R20D;R22D).
T2 chain: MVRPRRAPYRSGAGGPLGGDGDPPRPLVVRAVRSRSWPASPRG
Kind of series: EMSA.

Series [4] deals with T1, GPBP1 eAT-hook (eAT). Description: MST.
A further series deals with T3, GPBP1 eATmut (Homo sapiens, UniProt D4PHA4 38-80, R59D).
T3 chain: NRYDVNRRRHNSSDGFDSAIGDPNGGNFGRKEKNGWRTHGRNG
Kind of series: MST.

The target in series [5] is T2, PTOV1 eATmut. Description: MST.

For the molecule AGUUCCAUGAUGUUUUCAAACUCUAUUACCUACAUUAUUUGAAC (structured_RNA) [RNA1], the “apparent K (half saturation)” value with GPBP1 eAT-hook (eAT) [1] turned out to be 378 ± 18 nM; in the series with GPBP1 eAT-hook (eAT) [2] it was 373 ± 19 nM.

B1: rDNA En (gel shift) (dsDNA)
DNA 1: TGGATCTTTTTTTTTTTTTTTCTTTTTTCCTCCA
DNA 2: TGGAGGAAAAAAGAAAAAAAAAAAAAAAGATCCA
Consider B1, for which, in the series with PTOV1 eATmut [3], the binding result was “no binding”. Consider GAGAAACCGUGUAAACAAAACAUAACUGAGAGG (structured_RNA) [RNA2], for which, in the series with GPBP1 eAT-hook (eAT) [1], the “apparent K (half saturation)” value came to 938 ± 92 nM.

B2: rDNA En (MST) (dsDNA)
DNA 1: TCTTTTTTTTTTTTTTTCTTTTTTCCTCC
DNA 2: GGAGGAAAAAAGAAAAAAAAAAAAAAAGA
For the molecule B2, the “apparent K (half saturation)” value with GPBP1 eAT-hook (eAT) [4] came to 7 ± 1.7 µM. Besides, the binding result with GPBP1 eATmut and with PTOV1 eATmut [5] was “no binding” throughout.
